In patent publication US9273290B2, “Method for producing phosphite dehydrogenase protein and use thereof” (priority 2011, dated 2016):
Several values for one entry are separate records, joined by “and”; a condition that tells them apart may be missing. Identical values can stand only once.

B1: Ralstonia sp. strain 4506 phosphite dehydrogenase, SEQ ID NO: 1, C-terminal His tag fusion (PtxD4506) (Ralstonia sp. 4506) (protein)
chain: MKPKVVLTHWVHPEIIELLSASADVIPNTTRETLPRSEVIARAKDADALMAFMPDSIDSAFLEECPKLRVIGAALKGYDNFDVNACTRHGVWLTIVPDLLTIPTAELTIGLLLGLTRHMLEGDRQIRSGHFQGWRPTLYGSGLTGKTLGIIGMGAVGRAIAQRLAGFEMNLLYCDPIPLNAEQEKAWHVQRVTLDELLEKCDYVVPMVPMAAETLHLIDATALAKMKTGSYLINACRGSVVDENAVIAALASGKLAGYAADVFEMEEWIRADRPQAIPKALLDNTAQTFFTPHLGSAVKEVRLEIERQAAMNIIQALAGEKPMGAINQPYPGVKAA
B2: Pseudomonas stutzeri WM88 phosphite dehydrogenase, wild type, SEQ ID NO: 3, C-terminal His tag fusion (PtxDPst) (Stutzerimonas stutzeri) (protein)
chain: MLPKLVITHRVHDEILQLLAPHCELMTNQTDSTLTREEILRRCRDAQAMMAFMPDRVDADFLQACPELRVVGCALKGFDNFDVDACTARGVWLTFVPDLLTVPTAELAIGLAVGLGRHLRAADAFVRSGEFQGWQPQFYGTGLDNATVGILGMGAIGLAMADRLQGWGATLQYHEAKALDTQTEQRLGLRQVACSELFASSDFILLALPLNADTQHLVNAELLALVRPGALLVNPCRGSVVDEAAVLAALERGQLGGYAADVFEMEDWARADRPRLIDPALLAHPNTLFTPHIGSAVRAVRLEIERCAAQNIIQVLAGARPINAANRLPKAEPAAC
notes: His tag (C); made in house; host or cells: E. coli Rosetta2 (DE3), plasmid pET21b

Key:
[1] = substrate: NC(=O)c1ccc[n+]([C@@H]2O[C@H](COP(=O)([O-])OP(=O)(O)OC[C@H]3O[C@@H](n4cnc5c(N)ncnc54)[C@H](O)[C@@H]3O)[C@@H](O)[C@H]2O)c1; assay: purified protein, by the assay type; settings: 40° C.
[2] = substrate: NC(=O)c1ccc[n+]([C@@H]2O[C@H](COP(=O)([O-])OP(=O)(O)OC[C@H]3O[C@@H](n4cnc5c(N)ncnc54)[C@H](O)[C@@H]3O)[C@@H](O)[C@H]2O)c1; assay: Reaction kinetic analysis: NADH production rate at varied NAD+ concentration; format: biochemical, Pseudomonas stutzeri WM88; settings: 28° C.
Source text: By a well-known method, the base sequence of SEQ ID NO: 2 or a phosphite dehydrogenase gene (SEQ ID NO: 4) of P stutzeri WM88 was inserted into a plasmid pET21b (produced by Novagen) (an amino acid sequence of the protein encoded by the base sequence of SEQ ID NO: 4 is shown in SEQ ID NO: 3) to prepare (i) an expression vector of a fusion protein (see “PtxD4506” in FIG. 2) in which the C-terminal of the phosphite dehydrogenase protein of SEQ ID NO: 1 is labeled with a His tag or (ii) an expression vector of a fusion protein (see “PtxDPst” in FIG. 2) in which the C-terminal of the phosphite dehydrogenase protein of P stutzeri WM88 is labeled with a His tag.
The supernatant was supplied to a HisTrap column (produced by GE Healthcare) and, in accordance with protocols attached to the HisTrap column, a fusion protein in which a His tag was connected to the C-terminal of the phosphite dehydrogenase protein of SEQ ID NO: 1 was purified.
PtxD4506 and PtxDPst, which were purified with use of the HisTrap column in [3. Expression of Phosphite Dehydrogenase Protein By Using Escherichia Coli], were compared with each other in terms of reaction rate. The following description discusses how measurement of reaction rates was carried out.
Reaction rates of respective PtxD4506 and PtxDPst were calculated on the basis of (Reaction formula 1) shown in the section [Background Art].
Specifically, in the reaction system of (Reaction formula 1), a production rate of NADH was measured with use of 7.5 μg of each of the fusion proteins PtxD4506 and PtxDPst while a concentration of a substrate (NAD^+) was gradually changed from 0.5 μM to 200 μM. Note that a reaction temperature of the fusion protein PtxD4506 was 40° C., and a reaction temperature of the fusion protein PtxDPst was 28° C.
Based on the measured concentration of the substrate (NAD^+) and the measured production rate of NADH, values of Km (μM), Vmax (μmol/min/m), Kcat (min^−1), and Kcat/km were calculated in accordance with a well-known enzyme kinetic method (see, for example, “Fundamental Experiment Method of Proteins and Enzymes (2nd revised edition), Nankodo Co., Ltd.”). Note that the experiment was carried out three times, and values of Km, Vmax, Kcat, and Kcat/km were calculated in each of the experiments. Then, for each of Km, Vmax, Kcat, and Kcat/km, an average of the values calculated in the three experiments was obtained and defined as the value of each of Km, Vmax, Kcat, and Kcat/km. Kcat was calculated by the formula: Kcat=Vmax (μmol/min/mg)×(MW/10^3).

[3] = other: NAD+ 0.5 μM to 200 μM, individual experiments 1-3
[4] = other: NAD+, average of three experiments

Row | Protein | Km [1, 3] | Km [1, 4] | Vmax [1, 4] | kcat [1, 4] | Km [2, 3] | Km [2, 4] | Vmax [2, 4] | kcat [2, 4]
1 | B1 | 22.6 µM and 23.3 µM and 25.1 µM | 23.7 µM | 5.9 µmol/min/mg | 3.957 s⁻¹ |  |  |  | 
2 | B2 |  |  |  |  | 74.4 µM and 71.2 µM and 74.7 µM | 73.4 µM | 4.2 µmol/min/mg | 2.827 s⁻¹
